Assay results published in patent US20250304675A1 (MHS CARE INNOVATION, published 2025).

Columns and labels:
[1] = molecular target: human gastric inhibitory polypeptide (glucose-dependent insulinotropic polypeptide) (human)
[2] = molecular target: T1, human gastric inhibitory polypeptide (glucose-dependent insulinotropic polypeptide) (human); experiment: direct binding ELISA, CHO supernate on coated human GIP; 3rd of 10 in the printed order
T1 construct: also called human GIP; hGIP
T1 peptide: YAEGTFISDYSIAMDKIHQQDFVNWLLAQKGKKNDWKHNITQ
Protocol: (§1) CHO cells co-transfected with the mammalian expression vectors were grown in culture and the supernate collected. The supernate was evaluated for the presence of GIP-binding mAbs by direct binding ELISA Human GIP was fixed to the bottom of the wells on 96-well plates. Serial dilutions of the supernate were added to different wells of the 96-well plate. After a one hour incubation, the wells were washed twice with PBS before a secondary antibody that specifically binds to human IgG was added to each well. The antibody that specifically binds to human IgG was conjugated with the enzyme horse radish peroxidase (HRP). After incubation for one hour, the wells were washed with PBS before the HRP substrate was added. If HRP was present in a well, the substrate was converted to a colored compound. The amount of color intensity was read using a spectrophotometer. The amount of color produced was proportional to the amount of HRP-antibody conjugate remaining in each well. The amount of color produced was also proportional to the amount of mAb bound to hGIP in each well.

[3] = molecular target: T1, human gastric inhibitory polypeptide …; experiment: direct binding ELISA, CHO supernate on coated human GIP; 10th of 10 in the printed order
Protocol: as §1

[4] = molecular target: T1, human gastric inhibitory polypeptide …; experiment: direct binding ELISA, CHO supernate on coated human GIP; 6th of 10 in the printed order
Protocol: as §1

[5] = molecular target: T2, gastric inhibitory polypeptide (GIP), species not stated at the place of the result (Homo sapiens (Human), UniProt P09681 52-93); experiment: modified Schild's assay plot, reporter cell line expressing GIP receptors (derived from a functional assay)
T2 peptide: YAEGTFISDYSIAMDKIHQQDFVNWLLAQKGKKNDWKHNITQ

[6] = molecular target: T1, human gastric inhibitory polypeptide …; experiment: direct binding ELISA, CHO supernate on coated human GIP; 9th of 10 in the printed order
Protocol: as §1

[7] = molecular target: T1, human gastric inhibitory polypeptide …; experiment: direct binding ELISA, CHO supernate on coated human GIP; 7th of 10 in the printed order
Protocol: as §1

[8] = molecular target: T1, human gastric inhibitory polypeptide …; experiment: direct binding ELISA, CHO supernate on coated human GIP; 4th of 10 in the printed order
Protocol: as §1

[9] = molecular target: T2, gastric inhibitory polypeptide (GIP), …; experiment: hybridoma screening; assay not further stated

Question: With Fc as the molecule, how does the Relative Activity (beta-galactosidase of LGIPR3a reporter cells expressing rat GIPR; Fc mixed with 0.1 nM hGIP; bar as high as that of GIP alone, 0.098, so no neutralization) [1] read?
Answer: 0.105

B1: LC3/HC2 humanized antibody (antibody, V domains shown)
VH: QVQLVQSGAEVKKPGATVKISCKASGFNIRDYYLHWVQQAPGKGLEWMGWIDPENGDTEYAPKFQGRVTITADTSTNTAYMELSSLRSEDTAVYYCNVYGIYFMDYWGQGTMVTVSS
VL: DIQMTQSPGTLSLSPGERATLSCRASSSISSNSLHWYQQKPGQAPRLLIYRTSNRATGIPARFSGSGSGTDYTLTISSLEPEDFAVYYCQQGSSFPRMLTFGGGTKVEIKR
notes: Tested as CHO supernate
Question: Does B1 bind [2]?
Answer: binds

B2: LC3/HC3 humanized antibody (antibody, V domains shown)
VH: QVQLQESGAEVKKPGASVKVSCKASGFNIRDYYLHWVRQAPGQGLEWMGWIDPENGDTEYAPKFQGRVTTTADTSISTAYMELSRLRSDDTAVYYCNVYGIYFMDYWGQGTLVTVSS
VL: DIQMTQSPGTLSLSPGERATLSCRASSSISSNSLHWYQQKPGQAPRLLIYRTSNRATGIPARFSGSGSGTDYTLTISSLEPEDFAVYYCQQGSSFPRMLTFGGGTKVEIKR
notes: Tested as CHO supernate
Question: Does B2 bind [3]?
Answer: binds

B3: LC3/HC1 humanized antibody (antibody, V domains shown)
VH: QVQLVQSGAEVKKPGATVKISCKVSGFNIRDYYLHWVQQAPGKGLEWMGWIDPENGDTEYAPKFQGRVTITADTSTDTAYMELSSLRSEDTAVYYCNVYGIYFMDYWGQGTMVTVSS
VL: DIQMTQSPGTLSLSPGERATLSCRASSSISSNSLHWYQQKPGQAPRLLIYRTSNRATGIPARFSGSGSGTDYTLTISSLEPEDFAVYYCQQGSSFPRMLTFGGGTKVEIKR
notes: Tested as CHO supernate
Question: Does B3 bind [4]?
Answer: binds

B4: 10g10 monoclonal antibody (original mouse mAb) (antibody, V domains shown)
VH: QVQLQESGAELVRSGASVKLSCTASGFNIRDYYLHWIKQRPEQGLEWIGWIDPENGDTEYAPKFQDKATVTADTSSNTAYLQLNSLTSEDTAVYYCNVYGIYFMDYWGQGTTVTVSS
VL: DIQLTQSPSTMAASPGEKITITCSASSSISSNSLHWYQQKPGFSPKLLIYRTSNLASGVPGRFSGSGSGTSYSLTIGTMETEDVATYYCQQGSSFPRMLTFGTGTKLEIKR
notes: Mouse hybridoma antibody; also called 10g10 mAb; 10g10 GIP mAb
Question: For B4, which Kd [5] is on record?
Answer: 3200 nM

B5: LC1/HC3 humanized antibody (antibody, V domains shown)
VH: QVQLQESGAEVKKPGASVKVSCKASGFNIRDYYLHWVRQAPGQGLEWMGWIDPENGDTEYAPKFQGRVTTTADTSISTAYMELSRLRSDDTAVYYCNVYGIYFMDYWGQGTLVTVSS
VL: DIQMTQSPSSVSASVGDRVTITCRASSSISSNSLHWYQQKPGKAPKLLIYRTSSLQSGVPSRFSGSGSGTDYTLTISSLQPEDFATYYCQQGSSFPRMLTFGQGTKLEIKR
notes: Tested as CHO supernate
Question: Does B5 bind [6]?
Answer: binds

B6: LC2/HC2 humanized antibody (antibody, V domains shown)
VH: QVQLVQSGAEVKKPGATVKISCKASGFNIRDYYLHWVQQAPGKGLEWMGWIDPENGDTEYAPKFQGRVTITADTSTNTAYMELSSLRSEDTAVYYCNVYGIYFMDYWGQGTMVTVSS
VL: DIQLTQSPSSVSASVGDRVTITCRASSSISSNSLHWYQQKPGKAPKLLIYRTSNLQSGVPSRFSGSGSGTDYTLTISSLQPEDFATYYCQQGSSFPRMLTFGQGTKLEIKR
notes: CHO supernate in the ELISA; Protein A purified in the neutralization assay; also called mAbH; GIP mAbH
Question: With B6 as the molecule, how does the Kd [5] read?
Answer: 2200 nM

B7: LC1/HC1 humanized antibody (antibody, V domains shown)
VH: QVQLVQSGAEVKKPGATVKISCKVSGFNIRDYYLHWVQQAPGKGLEWMGWIDPENGDTEYAPKFQGRVTITADTSTDTAYMELSSLRSEDTAVYYCNVYGIYFMDYWGQGTMVTVSS
VL: DIQMTQSPSSVSASVGDRVTITCRASSSISSNSLHWYQQKPGKAPKLLIYRTSSLQSGVPSRFSGSGSGTDYTLTISSLQPEDFATYYCQQGSSFPRMLTFGQGTKLEIKR
notes: Tested as CHO supernate
Question: Does B7 bind [7]?
Answer: binds

B8: LC1/HC2 humanized antibody (antibody, V domains shown)
VH: QVQLVQSGAEVKKPGATVKISCKASGFNIRDYYLHWVQQAPGKGLEWMGWIDPENGDTEYAPKFQGRVTITADTSTNTAYMELSSLRSEDTAVYYCNVYGIYFMDYWGQGTMVTVSS
VL: DIQMTQSPSSVSASVGDRVTITCRASSSISSNSLHWYQQKPGKAPKLLIYRTSSLQSGVPSRFSGSGSGTDYTLTISSLQPEDFATYYCQQGSSFPRMLTFGQGTKLEIKR
notes: Tested as CHO supernate
Question: Does B8 bind [8]?
Answer: binds

B9: 14B9 antibody (antibody, V domains shown)
VH: QVQLQESGAALVRSGASVKLSCTASGFNIKDYYFHWVKQRPDQGLEWIGWIDPENGDTEYAPNFQVKATMTADTYSNTAYLHLSSLTSEDTAVYYCNSYGNNYFDYWGQGTTVTVSS
VL: DIQLTQSPAIMAASLGQKVTMTCSASSSVSSSYLHWYQQKSGASPKSLIHRTSNLASGVPARFSGSGSGTSYSLTISSVEAEDDATYYCLQWSGFPFTFGSGTKLEIKR
notes: Comparison antibody
Question: Does B9 bind [9]?
Answer: no binding
